In US20120164140A1:

Experiments:
Assay in all cases: cell-based or functional assay
[1] = biological target: BMP-6 (UniProt P22004)
[2] = biological target: BMP-5 (UniProt P22003)
[3] = biological target: T1, BMP-4 (unlabeled) (UniProt P12644)
T1 sequence (looked up): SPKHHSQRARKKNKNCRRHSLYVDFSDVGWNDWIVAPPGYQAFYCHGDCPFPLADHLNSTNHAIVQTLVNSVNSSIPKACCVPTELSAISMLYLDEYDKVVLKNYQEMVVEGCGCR

[4] = biological target: T2, BMP-2 (unlabeled) (UniProt P12643)
T2 sequence (looked up): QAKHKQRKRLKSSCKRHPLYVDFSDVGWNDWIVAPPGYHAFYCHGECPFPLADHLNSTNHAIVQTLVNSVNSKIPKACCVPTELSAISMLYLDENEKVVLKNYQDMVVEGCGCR

Measured: decrease in hepcidin promoter activation (luciferase reporter, Hep3B cells)

Chain of UniProt P22004 (P22004 382-513 limits assumed): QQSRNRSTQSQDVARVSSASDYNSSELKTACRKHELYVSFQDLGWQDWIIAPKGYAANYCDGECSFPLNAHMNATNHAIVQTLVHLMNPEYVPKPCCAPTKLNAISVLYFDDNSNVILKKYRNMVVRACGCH
Chain of UniProt P22003 (P22003 317-454 limits assumed): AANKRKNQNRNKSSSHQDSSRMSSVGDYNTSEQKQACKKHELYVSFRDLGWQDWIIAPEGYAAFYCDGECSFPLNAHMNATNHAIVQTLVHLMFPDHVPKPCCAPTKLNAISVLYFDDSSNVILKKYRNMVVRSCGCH

purified soluble human hemojuvelin fused to the Fc portion of immunoglobulin (HJV.Fc) (Fc fusion)
> 90%: all assays above
